Test system: NG-RYBP (Homo sapiens)
Test: EMSA
Conditions: n=3; almost fourfold; EMSA: 25 mM Tris-HCl pH 7.5, 50 mM NaCl, 0.05% Tween 20, 5 mM MgCl2, 4% glycerol, 0.2 nM nucleosome, 10 min on ice, 1% agarose 0.4x TBE; cryo-EM binding: 50 mM …

Substance: Nuc (EMSA, 201 bp 601)
- binding signal (fold lower affinity than NucH2Aub1): 4
